# Measured values from IntAct's records for PubMed 28559451.
# B1: UL16-binding protein 6 (Homo sapiens), Q5VY80 (parent)
# chain: MAAAAIPALLLCLPLLFLLFGWSRARRDDPHSLCYDITVIPKFRPGPRWCAVQGQVDEKTFLHYDCGNKTVTPVSPLGKKLNVTMAWKAQNPVLREVVDILTEQLLDIQLENYTPKEPLTLQARMSCEQKAEGHSSGSWQFSIDGQTFLLFDSEKRMWTTVHPGARKMKEKWENDKDVAMSFHYISMGDCIGWLEDFLMGMDSTLEPSAGAPLAMSSGTTQLRATATTLILCCLLIILPCFILPGI
# Variants of: B1
# Details: with nkg2d_human KLRK1, P26718
# Chain of nkg2d_human KLRK1, P26718 (P26718 whole entry): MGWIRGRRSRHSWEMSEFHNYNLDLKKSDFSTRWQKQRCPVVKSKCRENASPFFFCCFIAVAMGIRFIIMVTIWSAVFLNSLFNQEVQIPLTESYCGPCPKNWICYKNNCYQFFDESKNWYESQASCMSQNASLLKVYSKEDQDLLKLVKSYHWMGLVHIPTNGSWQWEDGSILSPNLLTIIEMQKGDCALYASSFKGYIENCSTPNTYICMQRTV
row,Variant,effect of a mutation on the interaction
1,MAAAAIPALLLCLPLLFLLFGWSRARRDDPHSLCYDITVIPKFRPGPRWCAVQGQVDEKTFLHYDCGNKTVTPVSPLGKKLNVTMAWKAQNPVLREVVDILTEQLRDIQLENYTPKEPLTLQARMSCEQKAEGHSSGSWQFSIDGQTFLLFDSEKRMWTTVHPGARKMKEKWENDKDVAMSFHYISMGDCIGWLEDFLMGMDSTLEPSAGAPLAMSSGTTQLRATATTLILCCLLIILPCFILPGI [L106R],decreasing interaction strength
